B1: hzsp34.78 (antibody, human IgG1, lambda, L234A L235A, V domains shown)
VH: EVQLVESGGGLVQPGGSLKLSCAASGFTFGTYAMNWVRQASGKGLEWVGRIRSKYNNYATYYADSVKDRFTISRDDSKSTLYLQMNSLKTEDTAVYYCARHGNFGQSYVSWFAYWGQGTTVTVSS
VL: QAVVTQEPSLTVSPGGTVTLTCRSSTGAVTTSNYANWVQQKPGQAPRGLIGGTNKRAPGVPARFSGSLLGDKAALTLLGAQPEDEAEYYCALWYSNLWVFGQGTKLTVLG
notes: CDR mutant of hzsp34.24; IgG1 L234A L235A, lambda
B2: hzsp34.86 (antibody, human IgG1, lambda, L234A L235A, V domains shown)
VH: EVQLVESGGGLVQPGGSLKLSCAASGFTFNTYAMNWVRQASGKGLEWVGRIRSKYNNYATYYADSVKDRFTISRDDSKSTLYLQMNSLKTEDTAVYYCARAGNFGQSYVSWFAYWGQGTTVTVSS
VL: QAVVTQEPSLTVSPGGTVTLTCRSSTGAVTTSNYANWVQQKPGQAPRGLIGGTNKRAPGVPARFSGSLLGDKAALTLLGAQPEDEAEYYCALWYSNLWVFGQGTKLTVLG
notes: as for B1
B3: hzsp34.88 (antibody, human IgG1, lambda, L234A L235A, V domains shown)
VH: EVQLVESGGGLVQPGGSLKLSCAASGFTFNTYAMNWVRQASGKGLEWVGRIRSKYNNYATYYADSVKDRFTISRDDSKSTLYLQMNSLKTEDTAVYYCARHGGFGQSYVSWFAYWGQGTTVTVSS
VL: QAVVTQEPSLTVSPGGTVTLTCRSSTGAVTTSNYANWVQQKPGQAPRGLIGGTNKRAPGVPARFSGSLLGDKAALTLLGAQPEDEAEYYCALWYSNLWVFGQGTKLTVLG
notes: as for B1
B4: hzsp34.82 (antibody, human IgG1, lambda, L234A L235A, V domains shown)
VH: EVQLVESGGGLVQPGGSLKLSCAASGFTFNTYAMNWVRQASGKGLEWVGRIRLKYNNYATYYADSVKDRFTISRDDSKSTLYLQMNSLKTEDTAVYYCARHGNFGQSYVSWFAYWGQGTTVTVSS
VL: QAVVTQEPSLTVSPGGTVTLTCRSSTGAVTTSNYANWVQQKPGQAPRGLIGGTNKRAPGVPARFSGSLLGDKAALTLLGAQPEDEAEYYCALWYSNLWVFGQGTKLTVLG
notes: as for B1
B5: hzsp34.84 (antibody, human IgG1, lambda, L234A L235A, V domains shown)
VH: EVQLVESGGGLVQPGGSLKLSCAASGFTFNTYAMNWVRQASGKGLEWVGRIRSKYGNYATYYADSVKDRFTISRDDSKSTLYLQMNSLKTEDTAVYYCARHGNFGQSYVSWFAYWGQGTTVTVSS
VL: QAVVTQEPSLTVSPGGTVTLTCRSSTGAVTTSNYANWVQQKPGQAPRGLIGGTNKRAPGVPARFSGSLLGDKAALTLLGAQPEDEAEYYCALWYSNLWVFGQGTKLTVLG
notes: as for B1
B6: hzsp34.80 (antibody, human IgG1, lambda, L234A L235A, V domains shown)
VH: EVQLVESGGGLVQPGGSLKLSCAASGFTFNTAAMNWVRQASGKGLEWVGRIRSKYNNYATYYADSVKDRFTISRDDSKSTLYLQMNSLKTEDTAVYYCARHGNFGQSYVSWFAYWGQGTTVTVSS
VL: QAVVTQEPSLTVSPGGTVTLTCRSSTGAVTTSNYANWVQQKPGQAPRGLIGGTNKRAPGVPARFSGSLLGDKAALTLLGAQPEDEAEYYCALWYSNLWVFGQGTKLTVLG
notes: as for B1
B7: hzsp34.83 (antibody, human IgG1, lambda, L234A L235A, V domains shown)
VH: EVQLVESGGGLVQPGGSLKLSCAASGFTFNTYAMNWVRQASGKGLEWVGRIRSKANNYATYYADSVKDRFTISRDDSKSTLYLQMNSLKTEDTAVYYCARHGNFGQSYVSWFAYWGQGTTVTVSS
VL: QAVVTQEPSLTVSPGGTVTLTCRSSTGAVTTSNYANWVQQKPGQAPRGLIGGTNKRAPGVPARFSGSLLGDKAALTLLGAQPEDEAEYYCALWYSNLWVFGQGTKLTVLG
notes: as for B1
B8: hzsp34.89 (antibody, human IgG1, lambda, L234A L235A, V domains shown)
VH: EVQLVESGGGLVQPGGSLKLSCAASGFTFNTYAMNWVRQASGKGLEWVGRIRSKYNNYATYYADSVKDRFTISRDDSKSTLYLQMNSLKTEDTAVYYCARHGNAGQSYVSWFAYWGQGTTVTVSS
VL: QAVVTQEPSLTVSPGGTVTLTCRSSTGAVTTSNYANWVQQKPGQAPRGLIGGTNKRAPGVPARFSGSLLGDKAALTLLGAQPEDEAEYYCALWYSNLWVFGQGTKLTVLG
notes: as for B1
B9: hzsp34.79 (antibody, human IgG1, lambda, L234A L235A, V domains shown)
VH: EVQLVESGGGLVQPGGSLKLSCAASGFTFNGYAMNWVRQASGKGLEWVGRIRSKYNNYATYYADSVKDRFTISRDDSKSTLYLQMNSLKTEDTAVYYCARHGNFGQSYVSWFAYWGQGTTVTVSS
VL: QAVVTQEPSLTVSPGGTVTLTCRSSTGAVTTSNYANWVQQKPGQAPRGLIGGTNKRAPGVPARFSGSLLGDKAALTLLGAQPEDEAEYYCALWYSNLWVFGQGTKLTVLG
notes: as for B1
B10: hzsp34.87 (antibody, human IgG1, lambda, L234A L235A, V domains shown)
VH: EVQLVESGGGLVQPGGSLKLSCAASGFTFNTYAMNWVRQASGKGLEWVGRIRSKYNNYATYYADSVKDRFTISRDDSKSTLYLQMNSLKTEDTAVYYCARHYNFGQSYVSWFAYWGQGTTVTVSS
VL: QAVVTQEPSLTVSPGGTVTLTCRSSTGAVTTSNYANWVQQKPGQAPRGLIGGTNKRAPGVPARFSGSLLGDKAALTLLGAQPEDEAEYYCALWYSNLWVFGQGTKLTVLG
notes: as for B1
B11: hzsp34.85 (antibody, human IgG1, lambda, L234A L235A, V domains shown)
VH: EVQLVESGGGLVQPGGSLKLSCAASGFTFNTYAMNWVRQASGKGLEWVGRIRSKYNGYATYYADSVKDRFTISRDDSKSTLYLQMNSLKTEDTAVYYCARHGNFGQSYVSWFAYWGQGTTVTVSS
VL: QAVVTQEPSLTVSPGGTVTLTCRSSTGAVTTSNYANWVQQKPGQAPRGLIGGTNKRAPGVPARFSGSLLGDKAALTLLGAQPEDEAEYYCALWYSNLWVFGQGTKLTVLG
notes: as for B1
B12: hzsp34.81 (antibody, human IgG1, lambda, L234A L235A, V domains shown)
VH: EVQLVESGGGLVQPGGSLKLSCAASGFTFNTYAMNWVRQASGKGLEWVGRISSKYNNYATYYADSVKDRFTISRDDSKSTLYLQMNSLKTEDTAVYYCARHGNFGQSYVSWFAYWGQGTTVTVSS
VL: QAVVTQEPSLTVSPGGTVTLTCRSSTGAVTTSNYANWVQQKPGQAPRGLIGGTNKRAPGVPARFSGSLLGDKAALTLLGAQPEDEAEYYCALWYSNLWVFGQGTKLTVLG
notes: as for B1

Experiments:
[1] = target: T1, human CD3 E&D complex protein (Sino Biological Inc., CT026H0323H) (human, UniProt P07766 23-126; P04234 22-105); test: BLI, antibody on sensor
T1 construct: bought heterodimer; also called human CD3 protein (CT026H0323H)
T1 sequence (P07766 23-126, chain 1 of 2): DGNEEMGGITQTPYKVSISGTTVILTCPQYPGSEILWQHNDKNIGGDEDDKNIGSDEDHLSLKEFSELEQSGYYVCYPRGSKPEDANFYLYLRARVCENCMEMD
T1 sequence (P04234 22-105, chain 2 of 2): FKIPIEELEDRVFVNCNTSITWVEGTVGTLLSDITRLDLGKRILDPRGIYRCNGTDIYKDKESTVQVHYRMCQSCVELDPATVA

[2] = target: T2, human CD3E&G complex (Sino Biological Inc., CT041-H0305H) (human, UniProt P07766 23-126; P09693 23-116); test: BLI, antibody on sensor
T2 construct: bought heterodimer; also called human CD3E&G antigen
T2 sequence (P07766 23-126, chain 1 of 2): as the sequence (P07766 23-126, chain 1 of 2) above
T2 sequence (P09693 23-116, chain 2 of 2): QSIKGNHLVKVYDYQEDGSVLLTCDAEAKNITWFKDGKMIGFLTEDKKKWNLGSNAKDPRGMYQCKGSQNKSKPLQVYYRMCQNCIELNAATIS

Row | Binder | Kd [1] [nM] | koff [1] [s⁻¹] | kon [1] [M⁻¹ s⁻¹] | Kd [2] [nM] | koff [2] [s⁻¹] | kon [2] [M⁻¹ s⁻¹]
1 | B1 | 1.35 | 0.0003 | 223000 | 8.97 | 0.00224 | 250000
2 | B2 | 1.39 | 0.000354 | 255000 | 6.61 | 0.00144 | 219000
3 | B3 | 4.55 | 0.000797 | 175000 | 15.8 | 0.00205 | 130000
4 | B4 | 10.3 | 0.00168 | 163000 | 12 | 0.00191 | 159000
5 | B5 | 0.812 | 0.0002 | 246000 | 4.89 | 0.00114 | 233000
6 | B6 | 6.55 | 0.00147 | 225000 | 15.4 | 0.00213 | 138000
7 | B7 | 0.928 | 0.0002 | 216000 | 3.6 | 0.000791 | 220000
8 | B8 | 6.62 | 0.00094 | 142000 | 13.8 | 0.00282 | 205000
9 | B9 | 0.507 | 0.000118 | 233000 | 6.36 | 0.00154 | 242000
10 | B10 | 0.88 | 0.000152 | 173000 | 6.06 | 0.000997 | 165000
11 | B11 | 1.32 | 0.000304 | 230000 | 8.08 | 0.00201 | 249000
12 | B12 | 7.69 | 0.00143 | 186000 | 11.1 | 0.00157 | 142000

From patent US20230374132A1 (Innovent, published 2023)
